Each block holds one molecule with its values, some of them ahead of it.
Legend:
[1] = molecular target: proprietary Ral effector protein of the RalA G-LISA Activation Assay Kit; test: ELISA-based assay; settings: Absorbances normalized to a no template control (NTC); mean of one experiment performed in triplicate; parent: 1.163
[2] = molecular target: proprietary Ral effector protein of the RalA G-LISA Activation Assay Kit; test: ELISA; RalA G-LISA Activation Assay Kit (colorimetric); Ral effector protein on the Ral-BP binding plate; purified RALA incubated in the presence or absence of 15 uM GTP for 1.5 h at 25 °C, then 23.75 ng of RALA/GTP mixture applied; absorbances normalized to a no template control; one experiment in triplicate

- response [1]: 0.281 absorbance
Molecule: wild-type RALA (RAS-like small GTPase), 6-His-tagged recombinant protein (from UniProt P11233) D130G

- response [1]: 1.83 absorbance
Molecule: wild-type RALA (RAS-like small GTPase), 6-His-tagged recombinant protein (from UniProt P11233) S157A

- response [1]: 0.286 absorbance
Molecule: wild-type RALA (RAS-like small GTPase), 6-His-tagged recombinant protein (from UniProt P11233) V25L

- response [1]: 0.649 absorbance
Molecule: wild-type RALA (RAS-like small GTPase), 6-His-tagged recombinant protein (from UniProt P11233) V25M

- fold change of binding against wild type [2]: 2 fold
B1: RALA G23D, 6-His-tagged recombinant protein (natural protein)
chain: MAANKPKGQNSLALHKVIMVGSDGVGKSALTLQFMYDEFVEDYEPTKADSYRKKVVLDGEEVQIDILDTAGQEDYAAIRDNYFRSGEGFLCVFSITEMESFAATADFREQILRVKEDENVPFLLVGNKSDLEDKRQVSVEEAKNRAEQWNVNYVETSAKTRANVDKVFFDLMREIRARKMEDSKEKNGKKKRKSLAKRIRERCCIL
